{
  "source": "patent US20200109188A1",
  "about": "(AstraZeneca / MedImmune, published 2020)",
  "binders": {"B1": {"name": "Antibody 3 (antibody, V domains shown)", "VH": "QVQLQESGPGLVKPSQTLSLTCAISGDSVSSNNAVWNWIRQSPSRGLEWLGRTYYRSKWYNDYAESVKSRITVNPDTSKNQFSLHLKSVTPEDTAVFYCVRSGHITVFGVNVDAFDMWGQGTMVTVSS", "VL": "DIQMTQSPSSLSASVGDRVTITCRTSQSLSSYLHWYQQKPGKAPKLLIYAASSLQSGVPSRFSGSGSGTDFTLTISSLQPEDFATYYCQQSRTFGQGTKVEIK"}},
  "key": {"[1]": {"target": "HA of A/Hong Kong/8/68 (H3N2) virus (influenza A virus)", "test": "cell-based or functional assay"}, "HA of H1-BS10 virus": {"target": "HA of H1-BS10 virus", "test": "cell-based or functional assay"}, "[2]": {"target": "HA of A/Kawasaki/9/86 (H1N1) virus (influenza A virus)", "test": "cell-based or functional assay"}, "[3]": {"target": "T1, HA of H3-LA87 (A/Los Angeles/7/09 (H3N2)) virus (influenza A virus)", "test": "cell-based or functional assay"}, "[4]": {"target": "T2, HA of ca A/Brit. Columbia/CN-6/04 (H7N3-LP) virus (influenza A virus)", "test": "cell-based or functional assay"}, "[5]": {"target": "T3, HA of ca A/New Caledonia/20/99 (H1N1) virus (influenza A virus)", "test": "cell-based or functional assay"}, "[6]": {"target": "HA of A/Wisconsin/67/05 (H3N2) virus (influenza A virus)", "test": "cell-based or functional assay"}, "[7]": {"target": "T4, HA of ca A/Netherlands/219/03 (H7N7) virus (influenza A virus)", "test": "cell-based or functional assay"}, "[8]": {"target": "HA of A/Fort Monmouth/1/47 (H1N1) virus (influenza A virus)", "test": "cell-based or functional assay"}, "[9]": {"target": "HA of ca A/Beijing/262/95 (H1N1) virus (influenza A virus)", "test": "cell-based or functional assay"}, "[10]": {"target": "HA of ca A/Japan/57 (H2N2) virus (influenza A virus)", "test": "cell-based or functional assay"}, "[11]": {"target": "HA of ca A/Panama/2007/99 (H3N2) virus (influenza A virus)", "test": "cell-based or functional assay"}, "[12]": {"target": "HA subtype H13 (A/gull/Maryland/704/77 (H13N6)) on HEK cells (influenza A virus, UniProt P13103 19-566)", "sequence (P13103 19-566)": "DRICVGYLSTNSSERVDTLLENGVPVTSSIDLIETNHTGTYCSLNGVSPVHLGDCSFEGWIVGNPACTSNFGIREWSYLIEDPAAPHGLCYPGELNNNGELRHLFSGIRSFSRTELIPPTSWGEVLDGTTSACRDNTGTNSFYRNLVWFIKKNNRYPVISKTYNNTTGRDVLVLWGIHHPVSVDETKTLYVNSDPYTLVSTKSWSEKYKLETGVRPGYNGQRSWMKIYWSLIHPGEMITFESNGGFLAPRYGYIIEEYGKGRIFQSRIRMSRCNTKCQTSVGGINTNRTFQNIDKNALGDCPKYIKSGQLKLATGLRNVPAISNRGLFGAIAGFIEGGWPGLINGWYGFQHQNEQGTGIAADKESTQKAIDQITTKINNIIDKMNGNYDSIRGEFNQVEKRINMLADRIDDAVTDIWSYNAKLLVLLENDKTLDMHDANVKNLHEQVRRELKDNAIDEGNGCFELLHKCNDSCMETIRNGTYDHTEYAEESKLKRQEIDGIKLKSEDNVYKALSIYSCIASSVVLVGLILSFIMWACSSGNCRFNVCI", "test": "flow cytometry, HA-transfected HEK cells, 5 ug/ml antibody"}, "[13]": {"target": "HA subtype H14 (A/mallard/Astrakhan/263/82 (H14N5)) on HEK cells (influenza A virus, UniProt P26136 18-568)", "sequence (P26136 18-568)": "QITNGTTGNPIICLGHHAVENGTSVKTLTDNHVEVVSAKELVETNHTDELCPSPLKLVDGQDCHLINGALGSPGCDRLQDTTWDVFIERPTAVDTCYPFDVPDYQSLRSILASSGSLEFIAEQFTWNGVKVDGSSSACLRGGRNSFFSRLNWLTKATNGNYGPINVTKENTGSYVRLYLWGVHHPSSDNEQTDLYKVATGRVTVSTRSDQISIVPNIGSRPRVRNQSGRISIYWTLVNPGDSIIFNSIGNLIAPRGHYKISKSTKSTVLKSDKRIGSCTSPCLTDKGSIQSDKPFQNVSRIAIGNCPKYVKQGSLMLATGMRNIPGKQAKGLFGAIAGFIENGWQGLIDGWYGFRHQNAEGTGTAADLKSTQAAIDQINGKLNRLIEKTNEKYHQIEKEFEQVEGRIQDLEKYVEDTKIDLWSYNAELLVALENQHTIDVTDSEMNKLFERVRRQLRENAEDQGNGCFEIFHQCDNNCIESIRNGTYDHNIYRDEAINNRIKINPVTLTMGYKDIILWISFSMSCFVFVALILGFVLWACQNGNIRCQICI", "test": "flow cytometry, HA-transfected HEK cells, 5 ug/ml antibody"}, "[14]": {"target": "HA subtype H10 (A/chicken/Germany/N49 (H10N7)) on HEK cells (influenza A virus, UniProt P12581 17-561)", "sequence (P12581 17-561)": "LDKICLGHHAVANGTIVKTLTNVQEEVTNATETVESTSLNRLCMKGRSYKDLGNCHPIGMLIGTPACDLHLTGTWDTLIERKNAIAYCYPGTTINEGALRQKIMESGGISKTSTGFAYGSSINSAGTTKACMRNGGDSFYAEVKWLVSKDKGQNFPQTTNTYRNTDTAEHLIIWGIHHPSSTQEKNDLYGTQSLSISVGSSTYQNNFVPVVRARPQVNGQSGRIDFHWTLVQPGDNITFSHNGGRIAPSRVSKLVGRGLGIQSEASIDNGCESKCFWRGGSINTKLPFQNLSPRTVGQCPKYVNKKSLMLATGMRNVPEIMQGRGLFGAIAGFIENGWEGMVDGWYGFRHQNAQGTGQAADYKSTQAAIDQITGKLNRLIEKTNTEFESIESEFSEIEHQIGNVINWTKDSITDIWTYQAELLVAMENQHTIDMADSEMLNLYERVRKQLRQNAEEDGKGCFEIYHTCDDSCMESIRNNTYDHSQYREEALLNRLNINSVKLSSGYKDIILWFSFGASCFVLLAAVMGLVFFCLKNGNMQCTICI", "test": "flow cytometry, HA-transfected HEK cells, 5 ug/ml antibody"}, "[15]": {"target": "HA subtype H4 (A/duck/Czechoslovakia/56 (H4N6)) on HEK cells (influenza A virus, UniProt P19696 17-564)", "sequence (P19696 17-564)": "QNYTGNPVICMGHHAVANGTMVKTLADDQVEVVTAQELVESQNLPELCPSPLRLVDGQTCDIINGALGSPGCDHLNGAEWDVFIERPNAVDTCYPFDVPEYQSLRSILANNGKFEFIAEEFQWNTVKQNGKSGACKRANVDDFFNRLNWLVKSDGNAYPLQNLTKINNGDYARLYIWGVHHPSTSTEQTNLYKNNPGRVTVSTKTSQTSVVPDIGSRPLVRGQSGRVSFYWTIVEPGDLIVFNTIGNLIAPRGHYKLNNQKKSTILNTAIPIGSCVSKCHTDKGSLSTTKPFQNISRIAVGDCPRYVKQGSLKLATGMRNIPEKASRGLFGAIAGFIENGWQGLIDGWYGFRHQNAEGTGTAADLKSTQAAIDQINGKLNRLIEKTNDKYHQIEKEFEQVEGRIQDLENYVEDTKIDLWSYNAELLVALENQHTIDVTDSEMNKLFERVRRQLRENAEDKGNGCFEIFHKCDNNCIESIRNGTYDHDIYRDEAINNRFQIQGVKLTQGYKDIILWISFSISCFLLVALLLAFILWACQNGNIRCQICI", "test": "flow cytometry, HA-transfected HEK cells, 5 ug/ml antibody"}, "[16]": {"target": "HA subtype H12 (A/duck/Alberta/60/76 (H12N5)) on HEK cells (influenza A virus, UniProt P03446 17-564)", "sequence (P03446 17-564)": "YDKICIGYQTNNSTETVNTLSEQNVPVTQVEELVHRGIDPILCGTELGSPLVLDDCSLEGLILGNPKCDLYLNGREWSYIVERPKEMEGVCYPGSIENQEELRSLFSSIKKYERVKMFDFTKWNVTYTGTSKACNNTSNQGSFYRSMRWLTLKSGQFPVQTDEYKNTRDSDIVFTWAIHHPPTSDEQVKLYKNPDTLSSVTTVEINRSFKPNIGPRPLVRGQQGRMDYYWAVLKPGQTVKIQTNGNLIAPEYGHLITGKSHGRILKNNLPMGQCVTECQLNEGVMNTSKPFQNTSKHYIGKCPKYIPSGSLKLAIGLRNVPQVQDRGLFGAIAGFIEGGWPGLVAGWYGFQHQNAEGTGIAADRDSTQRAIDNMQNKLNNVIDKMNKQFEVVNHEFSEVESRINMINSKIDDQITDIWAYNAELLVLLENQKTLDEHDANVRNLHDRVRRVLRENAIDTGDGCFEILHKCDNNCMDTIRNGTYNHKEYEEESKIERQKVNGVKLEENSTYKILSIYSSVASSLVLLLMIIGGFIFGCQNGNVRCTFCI", "test": "flow cytometry, HA-transfected HEK cells"}, "[17]": {"target": "HA of ca A/Sydney/5/97 (H3N2) virus (influenza A virus)", "test": "cell-based or functional assay"}, "[18]": {"target": "HA of A/Hong Kong/8/68 (H3N2) virus (influenza A virus)", "test": "cell-based or functional assay", "remark": "listed apart in the source"}, "[19]": {"target": "HA of ca A/Texas/36/91 (H1N1) virus (influenza A virus)", "test": "cell-based or functional assay"}, "[20]": {"target": "HA of A/Kawasaki/9/86 (H1N1) virus (influenza A virus)", "test": "cell-based or functional assay", "remark": "listed apart in the source"}, "[21]": {"target": "HA of ca A/Vietnam/1203/04 (H5N1) virus (influenza A virus)", "test": "cell-based or functional assay"}, "[22]": {"target": "T1, HA of H3-LA87 (A/Los Angeles/7/09 …)", "test": "cell-based or functional assay", "remark": "listed apart in the source"}, "[23]": {"target": "T2, HA of ca A/Brit. Columbia/CN-6/04 …", "test": "cell-based or functional assay", "remark": "listed apart in the source"}, "[24]": {"target": "T3, HA of ca A/New Caledonia/20/99 (H1N1) …", "test": "cell-based or functional assay", "remark": "listed apart in the source"}, "[25]": {"target": "HA of A/Wisconsin/67/05 (H3N2) virus (influenza A virus)", "test": "cell-based or functional assay", "remark": "listed apart in the source"}, "[26]": {"target": "HA of ca A/swine/Missouri/06 (H2N3) virus (influenza A virus)", "test": "cell-based or functional assay"}, "[27]": {"target": "HA of A/Wyoming/03/03 (H3N2) virus (influenza A virus)", "test": "cell-based or functional assay"}, "[28]": {"target": "HA of A/Victoria/3/75 (H3N2) virus (influenza A virus, UniProt P03435 17-567)", "sequence (P03435 17-567 limits assumed)": "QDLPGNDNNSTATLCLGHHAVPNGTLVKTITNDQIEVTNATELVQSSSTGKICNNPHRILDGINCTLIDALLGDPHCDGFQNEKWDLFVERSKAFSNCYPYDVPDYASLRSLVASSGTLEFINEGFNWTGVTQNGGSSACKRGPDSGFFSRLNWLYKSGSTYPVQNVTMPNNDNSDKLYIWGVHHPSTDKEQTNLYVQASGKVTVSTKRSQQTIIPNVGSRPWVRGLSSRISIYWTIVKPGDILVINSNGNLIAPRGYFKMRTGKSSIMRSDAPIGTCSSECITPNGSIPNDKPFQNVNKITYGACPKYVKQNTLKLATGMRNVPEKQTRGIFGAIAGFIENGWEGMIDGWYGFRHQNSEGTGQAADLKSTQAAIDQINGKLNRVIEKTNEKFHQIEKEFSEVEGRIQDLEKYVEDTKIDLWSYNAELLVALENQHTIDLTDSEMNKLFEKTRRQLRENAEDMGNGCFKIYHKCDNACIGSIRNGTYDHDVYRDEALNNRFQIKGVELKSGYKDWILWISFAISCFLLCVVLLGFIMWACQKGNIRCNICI", "test": "cell-based or functional assay"}, "[29]": {"target": "HA of ca A/teal/Hong Kong/W312/97 (H6N1) virus (influenza A virus)", "test": "cell-based or functional assay"}, "[30]": {"target": "T4, HA of ca A/Netherlands/219/03 (H7N7) …", "test": "cell-based or functional assay", "remark": "listed apart in the source"}, "[31]": {"target": "HA of ca A/chicken/Hong Kong/G9/97 (H9N2) virus (influenza A virus)", "test": "cell-based or functional assay"}, "[32]": {"target": "HA of ca A/Perth/16/09 (H3N2) virus (influenza A virus)", "test": "cell-based or functional assay"}, "[33]": {"target": "HA of A/New Jersey/8/76 (H1N1) virus (influenza A virus)", "test": "cell-based or functional assay"}, "[34]": {"target": "HA of A/Fort Monmouth/1/47 (H1N1) virus (influenza A virus)", "test": "cell-based or functional assay", "remark": "listed apart in the source"}, "[35]": {"target": "HA of ca A/Beijing/262/95 (H1N1) virus (influenza A virus)", "test": "cell-based or functional assay", "remark": "listed apart in the source"}, "[36]": {"target": "HA of ca A/Panama/2007/99 (H3N2) virus (influenza A virus)", "test": "cell-based or functional assay", "remark": "listed apart in the source"}, "[37]": {"target": "HA of ca A/Hong Kong/213/03 (H5N1) virus (influenza A virus)", "test": "cell-based or functional assay"}},
  "note": "Read-outs that look alike come from different tables or passages of the source.",
  "data": [
    {"binder": "B1", "values": [
      {"measurement": "Neutralization IC50, H3-HK68", "setting": "[1]", "value": 1.37, "unit": "µg/mL"},
      {"measurement": "Neutralization IC50, H1-BS10", "setting": "HA of H1-BS10 virus", "value": 2.16, "unit": "µg/mL"},
      {"measurement": "Neutralization IC50, H1-Kaw86", "setting": "[2]", "value": 1.01, "unit": "µg/mL"},
      {"measurement": "Neutralization IC50, H3-LA87", "setting": "[3]", "value": 2.04, "unit": "µg/mL"},
      {"measurement": "Neutralization IC50, H7-BC04", "setting": "[4]", "value": 2.95, "unit": "µg/mL"},
      {"measurement": "Neutralization IC50, H1-Ncal99", "setting": "[5]", "value": 1.16, "unit": "µg/mL"},
      {"measurement": "Neutralization IC50, H3-Wl05", "setting": "[6]", "value": 2.62, "unit": "µg/mL"},
      {"measurement": "Neutralization IC50, H7-NLD03", "setting": "[7]", "value": 4.74, "unit": "µg/mL"},
      {"measurement": "Neutralization IC50, H1-FM47", "setting": "[8]", "value": 1.04, "unit": "µg/mL"},
      {"measurement": "Neutralization IC50, H1-BJ95", "setting": "[9]", "value": 2.98, "unit": "µg/mL"},
      {"measurement": "Neutralization IC50, H2-JP57", "setting": "[10]", "value": 0.46, "unit": "µg/mL"},
      {"measurement": "Neutralization IC50, H3-Pa99", "setting": "[11]", "value": 9, "unit": "µg/mL"},
      {"measurement": "binding result", "setting": "[12]", "value": "binds"},
      {"measurement": "binding result", "setting": "[13]", "value": "binds"},
      {"measurement": "binding result", "setting": "[14]", "value": "binds"},
      {"measurement": "binding result", "setting": "[15]", "value": "binds"},
      {"measurement": "binding result", "setting": "[16]", "value": "no binding (tested: 5 ug/ml)"},
      {"measurement": "Neutralization IC50, H3-Syd97", "setting": "[17]", "value": 3.75, "unit": "µg/mL"},
      {"measurement": "Neutralization IC50, H3-HK68", "setting": "[18]", "value": 0.68, "unit": "µg/mL"},
      {"measurement": "Neutralization IC50, H1-TX91", "setting": "[19]", "value": 0.6, "unit": "µg/mL"},
      {"measurement": "Neutralization IC50, H1-Kaw86", "setting": "[20]", "value": 0.58, "unit": "µg/mL"},
      {"measurement": "Neutralization IC50, H5-VM04", "setting": "[21]", "value": 2.11, "unit": "µg/mL"},
      {"measurement": "Neutralization IC50, H3-LA87", "setting": "[22]", "value": 4.19, "unit": "µg/mL"},
      {"measurement": "Neutralization IC50, H7-BC04", "setting": "[23]", "value": 4.72, "unit": "µg/mL"},
      {"measurement": "Neutralization IC50, H1-Ncal99", "setting": "[24]", "value": 0.79, "unit": "µg/mL"},
      {"measurement": "Neutralization IC50, H3-Wl05", "setting": "[25]", "value": 2.44, "unit": "µg/mL"},
      {"measurement": "Neutralization IC50, H2-MO06", "setting": "[26]", "value": 2.27, "unit": "µg/mL"},
      {"measurement": "Neutralization IC50, H3-Wy03", "setting": "[27]", "value": 0.63, "unit": "µg/mL"},
      {"measurement": "Neutralization IC50, H3-Vic75", "setting": "[28]", "value": 0.75, "unit": "µg/mL"},
      {"measurement": "Neutralization IC50, H6-HK97", "setting": "[29]", "value": 1.77, "unit": "µg/mL"},
      {"measurement": "Neutralization IC50, H7-NLD03", "setting": "[30]", "value": 4.78, "unit": "µg/mL"},
      {"measurement": "Neutralization IC50, H9-HK97", "setting": "[31]", "value": 1.79, "unit": "µg/mL"},
      {"measurement": "Neutralization IC50, H3-Perth09", "setting": "[32]", "value": 1.49, "unit": "µg/mL"},
      {"measurement": "Neutralization IC50, H1-NJ76", "setting": "[33]", "value": 1.41, "unit": "µg/mL"},
      {"measurement": "Neutralization IC50, H1-FM47", "setting": "[34]", "value": 0.92, "unit": "µg/mL"},
      {"measurement": "Neutralization IC50, H1-BJ95", "setting": "[35]", "value": 3.41, "unit": "µg/mL"},
      {"measurement": "Neutralization IC50, H3-Pa99", "setting": "[36]", "value": 17.7, "unit": "µg/mL"},
      {"measurement": "Neutralization IC50, H5-HK03", "setting": "[37]", "value": 4.64, "unit": "µg/mL"}
    ]}
  ]
}
